Assay results published in the supplement of paper PMC10567573.
± gives the standard deviation.

Assay: protein stability index of a GFP-peptide fusion (GPS, HEK-293T) (PSI 1-6); higher = more stable
[1] = treatment: DMSO, c terminus: a fixed tail appended
[2] = treatment: MLN4924 1 uM, 8 h, c terminus: a fixed tail appended
[3] = treatment: DMSO, c terminus: native
[4] = treatment: MLN4924 1 uM, 8 h, c terminus: native
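Note: 24-mer peptide tiles fused after GFP, lentivirally expressed, FACS-sorted into six equal bins by GFP/DsRed ratio, decoded by Illumina sequencing, PSI is the read-weighted mean bin number.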

| Sequence | protein stability index [1] | protein stability index [2] | protein stability index [3] | protein stability index [4] |
| --- | --- | --- | --- | --- |
| SHAGKVVLRSWYEKNKHIFPASRW [FAM50A] | 2.4 ± 0.3 | 2.58 ± 0.21 |  |  |
| SHAIHVEEQSDQSFSSLEPDNEQL [IQUB] | 5.38 ± 0.27 | 5.63 ± 0.17 |  |  |
| SHHSKHKAPSKLGLIISGPILQEG [DLC1] | 3.08 ± 0.2 | 3.28 ± 0.13 |  |  |
| SIHYAAAYGHRQCLELVSCFVLFS [ANKRD44] | 2.25 ± 0.44 | 2.2 ± 0.52 |  |  |
| SILFGFWTSFICDTYIVLAWISKI [SMIM2] | 3.15 ± 0.34 | 3.31 ± 0.25 |  |  |
| SKLASMSNDFKSVLEVRTENLKQQ [STX5] | 4.04 ± 0.28 | 4.21 ± 0.32 |  |  |
| SKNGNGLKNTPRFKRRRVRRRRME [PCMTD2] | 4.6 ± 0.2 | 4.58 ± 0.32 |  |  |
| SLAGALGVKFVGLFIILQVGLNTI [POMT2] | 3.27 ± 0.16 | 3.16 ± 1.2 |  |  |
| SLDGRDPGNGTHGLSPEEKEQLSN [ELOA2] | 5.48 ± 0.23 | 5.64 ± 0.16 |  |  |
| SLDISGHMILENCSISKMEEEAGQ [ZER1] | 4.66 ± 0.22 | 4.68 ± 0.22 |  |  |
| SLGAVGEGFHNYHHSFPYDYSASE [SCD] | 3.81 ± 0.24 | 3.88 ± 0.28 |  |  |
| SLKLIKRLYVDKSLNLSTEFISST [SERPINB5] | 2.38 ± 0.26 | 2.11 ± 0.15 |  |  |
| SLNMSRRDSESTRHDSETEDMLWD [PHTF1] | 5.32 ± 0.15 | 5.26 ± 0.2 |  |  |
| SLQEEPVEGFRITLVDESDLYNWE [UBE2R2] | 3.66 ± 0.49 | 3.58 ± 0.4 |  |  |
| SMAAVPTLELCHDELFADLFNSNH [CEBPD] | 3.57 ± 0.3 | 3.6 ± 0.26 |  |  |
| SNDFKSVLEVRTENLKQQRSRREQ [STX5] | 4.9 ± 0.21 | 4.92 ± 0.31 |  |  |
| SNFETYPENDWDTAAPVPQKDLEI [PRKX] | 5.03 ± 0.12 | 5.15 ± 0.2 |  |  |
| SNNKKNDEMQEVPNRVLAPEQSLK [SPANXN3] | 5.27 ± 0.16 | 5.36 ± 0.17 |  |  |
| SPAGELPKTVQQPTESEPVTINIQ [MATN2] | 5.29 ± 0.31 | 5.24 ± 0.38 |  |  |
| SPAPLDTCPSSSTASSISSSGGSS [DYRK1B] | 5.33 ± 0.16 | 5.35 ± 0.088 |  |  |
| SPINSPARGTPSPKRMPSGRGGRD [FSD1] | 5.22 ± 0.15 | 5.04 ± 0.35 |  |  |
| SPLHAAAEAGHVDICHMLVQFCRL [EHMT1] | 2.25 ± 0.069 | 2.5 ± 0.37 |  |  |
| SPSFPEAPDSGRSAPYSAAFLELP [TBX6] | 3.96 ± 0.3 | 3.93 ± 0.44 |  |  |

| Sequence | protein stability index [1] | protein stability index [2] | protein stability index [3] | protein stability index [4] |
| --- | --- | --- | --- | --- |
| SQEYQILLDVKTRLEQEIATYRRL [KRT16] | 2.71 ± 0.34 | 2.88 ± 0.44 |  |  |
| SQKATRECEKSALTPGFSDNAIML [FAN1] | 3.85 ± 0.22 | 3.98 ± 0.17 |  |  |
| SQKEMDKAETKTKKAAESLRRSVE [FCHO1] | 5.24 ± 0.29 | 5.23 ± 0.38 |  |  |
| SQKGCLALSLLELLGFNLTFVFLA [CLCN6] | 3.15 ± 0.42 | 3.03 ± 0.42 |  |  |
| SQLDSGVSQAVEGPEELSRSSSES [RIPK4] | 5.5 ± 0.087 | 5.54 ± 0.26 |  |  |
| SQMPPPAGGTSDDPEPSGPHLPRV [SCNN1D] | 5.23 ± 0.31 | 5.43 ± 0.12 |  |  |
| SQQQNMMQDYVRTGTYQRAILQNH [CARM1] | 3.21 ± 0.27 | 3.12 ± 0.23 |  |  |
| SREKTACAINKVGVSFSTVENELM [FAM98B] | 3.35 ± 0.28 | 3.63 ± 0.5 |  |  |
| SRESSKPRAVLKPRRVCVGGKRRR [PPP2R2C] | 4.94 ± 0.33 | 4.87 ± 0.19 |  |  |
| SRSSILVQHQRVHTGEKPYKCLEC [ZNF24] | 3.54 ± 0.19 | 3.65 ± 0.23 |  |  |
| SSEVGPFVSKIRAVINDIANLPVP [AUH] | 2.64 ± 0.25 | 2.62 ± 0.42 |  |  |
| SSFSLLLDLLSELYQKQPKIGYHL [INTS3] | 3.05 ± 0.2 | 2.86 ± 0.62 |  |  |
| SSGNTVLLLILCMQHSFPEPGRLY [TMEM192] | 3.1 ± 0.73 | 3.09 ± 0.53 |  |  |
| SSSFSNLDLSEEDSDDPSVTLELS [VDR] | 5.35 ± 0.23 | 5.16 ± 0.28 |  |  |
| SSSSSASSSASSSFSEEGAVGYSS [NFE2L1] | 5.25 ± 0.16 | 5.32 ± 0.13 |  |  |
| SSSSSSQAPGQPPGNQAEHGAVTV [ZBTB22] | 5.12 ± 0.15 | 5.08 ± 0.24 |  |  |
| SSYVASIVDGGESRSEKGDSSRY [RBMY1A1] |  |  | 4.35 ± 0.28 | 4.27 ± 0.35 |
| STALERPSFLSQTGHGVSRGPSPV [FCHO1] | 4.1 ± 0.34 | 4.28 ± 0.42 |  |  |
| STNEEEKEENEAESDVKHRTRDYK [PRIM1] | 5.57 ± 0.17 | 5.16 ± 0.47 |  |  |
| STNLGVNQAGFTLHSAIYAARPDV [ADD1] | 3.02 ± 0.18 | 3.08 ± 0.35 |  |  |
| STSFRVYIMAFDIKSEDMLKILKP [FBXO33] | 2.14 ± 0.59 | 3.02 ± 0.51 |  |  |
| SVHNDLWESWFVPDPAGIFKLNHH [GLT8D2] | 2.38 ± 0.18 | 2.53 ± 0.22 |  |  |
| SVNTHDYAKVKEFIVDILQFLDIG [MATN2] | 2.23 ± 0.35 | 2.05 ± 0.32 |  |  |

| Sequence | protein stability index [1] | protein stability index [2] | protein stability index [3] | protein stability index [4] |
| --- | --- | --- | --- | --- |
| SVSKAQSIYGIPHSTLEYKVKERL [LCOR] | 3.42 ± 0.43 | 3.54 ± 0.13 |  |  |
| SVTDVTTSSLRLNWEAPPGAFDSF [TNXB] | 3.54 ± 0.2 | 3.35 ± 0.16 |  |  |
| SVVGTVLAATQAEKAVANFDRTEW [ZC2HC1C] | 3.26 ± 0.21 | 3.26 ± 0.3 |  |  |
| SVVPEMEESGAQLLLEMLTFNPHK [CDK4] | 3.14 ± 0.26 | 3.15 ± 0.38 |  |  |
| SWAWRGPGVLKVLWLTASQPCSIV [LPCAT4] | 2.74 ± 1.1 | 2.52 ± 0.84 |  |  |
| SWYPKANNQDFIPFTKKRVGVDRA [ZC2HC1C] | 3.07 ± 0.33 | 2.94 ± 0.15 |  |  |
| SYAHGWMFQGWNCGDYFPDGITNG [CPN1] | 2.35 ± 0.18 | 2.27 ± 0.17 |  |  |
| SYSTQASAAAATAELLKKQEELNR [SCAMP3] | 4.99 ± 0.19 | 5.03 ± 0.11 |  |  |
| SYTIITPLFNPMIYSLRNKEFKSA [OR10K2] | 2.74 ± 0.65 | 2.38 ± 0.34 |  |  |
| TAIFYTLMTCEMLNRRNGSLRIAL [EDNRA] | 2.85 ± 0.21 | 3.15 ± 0.42 |  |  |
| TAPRTLPSCLACNRQCLCSAESMV [SPRY1] | 2.75 ± 0.34 | 2.59 ± 0.48 |  |  |
| TAPSGGQWGAEPEGSCYQTFRQYC [RNF208] | 2.75 ± 0.29 | 2.89 ± 0.18 |  |  |
| TASLLLCPGGLDHKLNLRGKAWG [TIAF1] |  |  | 2.98 ± 0.22 | 2.59 ± 0.67 |
| TAWTEACQVEVRLLLAYNSSARIP [INTS4] | 3.03 ± 0.4 | 2.43 ± 0.49 |  |  |
| TCSTRFVSGGSAGGYGGGVSCGFG [KRT13] | 2.46 ± 0.29 | 2.43 ± 0.31 |  |  |
| TDQPPLVQAIFSGDPEEIRMLIHK [ANKRD44] | 3.31 ± 0.28 | 3.48 ± 0.3 |  |  |
| TDRIAAAQYSVTGSAVARAVCKAT [SNAP91] | 3.9 ± 0.24 | 3.94 ± 0.19 |  |  |
| TDVRGLEEFLSAMQSARGPTPSSP [PLEKHN1] | 4.12 ± 0.16 | 4.14 ± 0.38 |  |  |
| TECEGDIQKNYECANFGDQGITMG [LOXL2] | 4.94 ± 0.11 | 5.04 ± 0.19 |  |  |
| TFNPHKRISAFRALQHSYLHKDEG [CDK4] | 2.87 ± 0.14 | 3.12 ± 0.09 |  |  |
| TFVSTCQAIDATVAAELLNHLLES [HES6] | 2.48 ± 0.35 | 2.48 ± 0.32 |  |  |
| TGEKPHTCSECGKGFIQKGNLNIH [ZNF649] | 3.14 ± 0.25 | 3.54 ± 0.16 |  |  |
| TGGLLPIKRTIRVLDVNNQSFREQ [NET1] | 2.92 ± 0.13 | 3.03 ± 0.24 |  |  |

| Sequence | protein stability index [1] | protein stability index [2] | protein stability index [3] | protein stability index [4] |
| --- | --- | --- | --- | --- |
| THSRMGSIMSTGIVQGSSGAQGSG [CARM1] | 4.48 ± 0.1 | 4.26 ± 0.34 |  |  |
| THWAVGVCRDSVSRKGELTPLPET [TRIM39] | 2.96 ± 0.19 | 2.95 ± 0.23 |  |  |
| TIFSASNYYEVGSNRGAYVKLGPA [PPEF2] | 2.39 ± 0.5 | 2.66 ± 0.3 |  |  |
| TIVSCTPVHLVDKLPLPSTLRSHL [RAB40A] | 2.32 ± 0.091 | 2.28 ± 0.15 |  |  |
| TKCEYMLNSMPKRLCLVCGDIASG [ESRRG] | 2.32 ± 0.29 | 2.13 ± 0.12 |  |  |
| TKSHIMLVQRQMSVIEEDLEEFQL [NECAB1] | 3.22 ± 0.21 | 3.12 ± 0.21 |  |  |
| TLCDVTLRVEQKDFPAHRIVLAAC [KLHL12] | 2.21 ± 0.52 | 1.83 ± 0.53 |  |  |
| TLDPNGKTCSRVDHCAQQDHGCEQ [MATN2] | 4.03 ± 0.25 | 4.16 ± 0.22 |  |  |
| TLGREVMSPLQAMSSYTVAGRNVL [NLN] | 3.1 ± 0.2 | 3.01 ± 0.34 |  |  |
| TLMEEVLLLGLKDREGYTSFWNDC [GOLPH3] | 2.71 ± 0.58 | 2.72 ± 0.69 |  |  |
| TLRGTGATADFADVADDFENYHKL [NETO1] | 4.4 ± 0.22 | 4.49 ± 0.084 |  |  |
| TLVGCWSDVVGRRSSLLACILLSA [MFSD9] | 2.84 ± 0.38 | 2.71 ± 0.4 |  |  |
| TMGLRHLPVVNAVGEIVGIITRHN [CLCN6] | 2.47 ± 0.19 | 2.41 ± 0.12 |  |  |
| TNNGAGFGLSILWVLLFTPCSFVC [SCAMP3] | 3.04 ± 0.37 | 3.27 ± 0.36 |  |  |
| TNVESQLAEIRSDLERQNQEYQVL [KRT33B] | 4.52 ± 0.26 | 4.56 ± 0.25 |  |  |
| TPEELEEEIPVVICAAAGRMGATM [GLT8D2] | 4.25 ± 0.26 | 4.29 ± 0.21 |  |  |
| TPMTIPEFFRESVNRFGTYPALAS [ACSBG2] | 2.6 ± 0.41 | 2.78 ± 0.14 |  |  |
| TQYVRHSSDPFYTPEPDTCHELLG [TPH1] | 3.63 ± 0.35 | 4 ± 0.32 |  |  |
| TRGFLRSPSSDLDTDAEGDDFELL [RETREG3] | 5.24 ± 0.17 | 5.29 ± 0.2 |  |  |
| TSAITASRSESPPPLSDPKQAKVV [BRD3] | 5.24 ± 0.22 | 5.21 ± 0.077 |  |  |
